Experiment [1] deals with Peptide N-YEPEA-C (SEQ ID NO: 11), residues Y136-A140 of full-length α-synuclein (Homo sapiens, UniProt P37840). The experiment is described as follows: Isothermal titration calorimetry (ITC) of NbSyn2 binding to C-terminal peptide fragment of α-synuclein.
Description: Calorimetric measurements were recorded using a MCS-ITC calorimeter (MicroCal, LLC, Northampton, Mass., USA). […] Both proteins were dialyzed prior to measurements in exactly the same buffer containing 10 mM phosphate, 150 mM sodium chloride at a pH of 7.4. Each injection was performed every four minutes at the desired temperature. […] The thermodynamic analysis was performed using the Microcal analysis software (Origin 7.0) with a 1:1 binding model. The temperature dependence of ΔH, allowed the calculation of ΔCp through the relationship ΔCp=δΔH/δT. The contribution of protonation to the ΔH was evaluated using a 10 mM Tris-HCL buffer 100 mM NaCl at pH 7.4.
The test system of experiment [2] is EPEA (SEQ ID NO:1)-tagged Rev protein. The experiment can be described thus: In vivo detection of EPEA-tagged Rev in transfected HeLa cells by confocal microscopy. Format: cell-based, HIV. The note with it: nanobody fused to mKO1 or GFP, GYQDYEPEA and EPEA tags.
Excerpt: In another set of experiments, we explored the use of the EPEA (SEQ ID NO:1) tag to detect/visualize the expression of recombinant proteins within a (living) eukaryotic cell. […] Cells that are double-transfected with Rev-[sequence] (SEQ ID NO:10) or Rev-[sequence]
The two different tags [sequence] (SEQ ID NO:2) and EPEA (SEQ ID NO:1) were C-terminal fused to Rev by PCR using Takara Ex Taq polymerase (TAKARA BIO INC).
HeLa, human epithelial cells were maintained using standard procedures until confluent in DMEM medium with 10% fetal calf serum. For transfection of plasmid DNA in HeLa, cells were harvested by a Trypsin/EDTA treatment, counted and plated onto glass bottom microwell dishes (MatTek corporation). Transfections were preformed according to manufacturer's manual: the 4×10^5 cells were seeded in a 35 mm dish. […]
Transfected HeLa cells were imaged with a laser scanning SP5 confocal microscope (Leica Microsystems) equipped with an AF 6000 microscope and an AOBS, using a HCX PL APO×63 (NA 1.2) water immersion objective magnification. GFP was monitored with the Ar laser using the 488-nm line for excitation, and emission was detected between 492 and 570 nm. mKusabira orange fluorescent protein (mKO) was imaged using the DPSS-561 nm laser for excitation, and emission was detected between 570 and 675 nm.

“NbSyn2: Nanobody that specifically binds to α-synuclein, 126 amino acids, SEQ ID NO:21”: the Kd in experiment [1] (293.1 K) is 240 ± 26 nM; in experiment [1] (298.1 K), 190 ± 30 nM; in experiment [1] (303.1 K) it was 460 ± 110 nM; in experiment [1] (310.1 K) it was 850 ± 130 nM. Besides, in experiment [2], the “Recognition of tagged Rev in double-transfected cells (colocalization in the nucleus)” value is “recognized in vivo”.
